{"source": "paper PMC5384396", "key": {"[1]": {"target": "histidine-tagged recombinant FcγRIIIa (158V) (human)", "assay": "SPR"}, "[2]": {"target": "hGITR on hGITR-transfected Jurkat cells (human) (UniProt Q9Y5U5)", "sequence (Q9Y5U5 26-241)": "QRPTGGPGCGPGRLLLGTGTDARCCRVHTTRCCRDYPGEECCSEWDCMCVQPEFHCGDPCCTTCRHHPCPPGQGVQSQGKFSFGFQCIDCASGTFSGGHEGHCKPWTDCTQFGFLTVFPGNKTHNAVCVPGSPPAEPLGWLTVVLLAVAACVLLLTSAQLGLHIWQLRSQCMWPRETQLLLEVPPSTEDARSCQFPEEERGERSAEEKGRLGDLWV"}, "[3]": {"target": "hGITR on hGITR-transfected Jurkat cells (human) (UniProt Q9Y5U5)", "remark": "listed apart in the source"}}, "data": [{"substance": "IgG1 isotype control antibody", "values": [{"measurement": "Kd", "setting": "[1]", "value": 175, "unit": "nM"}]}, {"substance": "IgG4 Fc-containing GITRL FP (from UniProt Q9UNG2 49-177) (Fc fusion)", "values": [{"measurement": "Jurkat-based NFκB reporter gene assay, EC50, comparison of Fc isotypes (Fig. S5)", "setting": "[2]", "value": 0.3, "unit": "nM"}]}, {"substance": "hGITRL FP with the human matrilin 1 trimerization domain (from UniProt Q9UNG2 49-177) (Fc fusion)", "values": [{"measurement": "NFκB-luciferase reporter in hGITR-transfected Jurkat cells, agonism EC50", "setting": "[3]", "value": 0.92, "unit": "nM"}]}]}
